Source: article PMC3347997, “Identification of basepairs within Tn5 termini that are critical sfor H-NS binding to the transpososome and regulation of Tn5 transposition”

Assays:
[1] = molecular target: H-NS;Tn5 transposase (Escherichia coli;Tn5) (UniProt P0ACF8+Q46731); experiment: EMSA; conditions: 2 nM 32P-DNA, 200 nM transposase (400 nM for ME 8/9), H-NS normally 23-849 nM added simultaneously, no divalent metal, 30 min 37 C, 5% native PAGE; buffer …
H-NS = molecular target: T1, H-NS (Escherichia coli, UniProt P0ACF8 1-137); experiment: EMSA; no appreciable H-NS binding to OE DNA not associated with transposase; no divalent metal; 2 nM 32P-DNA, 200 nM transposase (400 nM for ME 8/9), H-NS normally 23-849 nM added simultaneously, no divalent metal, 30 min 37 C, 5% native PAGE; buffer, salt and pH not given (cited); conditions: protein: recombinant; chain copies: 2; label: 5' 32P; as printed: 3 nt 5' overhang on strand 2; described as 53 bp duplex; two copies per transpososome
T1 sequence: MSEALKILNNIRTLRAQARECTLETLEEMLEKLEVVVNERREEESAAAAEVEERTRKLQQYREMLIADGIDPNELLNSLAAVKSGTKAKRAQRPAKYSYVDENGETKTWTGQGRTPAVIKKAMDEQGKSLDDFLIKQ

H-NS;Tn5 transposase (Escherichia coli;Tn5), sequence (Q46731 whole entry, chain 2 of 2, one chain of several): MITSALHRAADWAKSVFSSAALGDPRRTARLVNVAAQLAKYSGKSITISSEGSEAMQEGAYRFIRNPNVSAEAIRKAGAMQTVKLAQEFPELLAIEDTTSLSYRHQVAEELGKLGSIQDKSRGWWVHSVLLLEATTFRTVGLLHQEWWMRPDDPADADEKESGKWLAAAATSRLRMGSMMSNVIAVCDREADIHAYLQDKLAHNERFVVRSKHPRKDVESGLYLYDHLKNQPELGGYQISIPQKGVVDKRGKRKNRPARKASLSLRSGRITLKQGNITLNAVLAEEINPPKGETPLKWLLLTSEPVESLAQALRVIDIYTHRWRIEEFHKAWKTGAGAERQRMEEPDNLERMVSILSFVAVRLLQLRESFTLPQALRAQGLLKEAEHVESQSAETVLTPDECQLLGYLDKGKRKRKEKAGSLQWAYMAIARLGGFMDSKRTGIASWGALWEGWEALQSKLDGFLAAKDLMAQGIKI

CCCTGCAGGTCGACTGACTCTTATACACAAGTTGAGTGAGTGAGCATGCA / ACATGCATGCTCACTCACTCAACTTGTGTATAAGAGTCAGTCGACCTGCAGGG [OE 53-bp transposon end]
Kd [1]: 232 nM

CCCTGCAGGTCGACTGTCTCTTATACACATCTTGAGTGAGTGAGCATGCA / ACATGCATGCTCACTCACTCAAGATGTGTATAAGAGACAGTCGACCTGCAGGG [WT ME 53-bp transposon end]
Kd [1]: 51 nM

B1: OE 53-bp transposon end (dsDNA)
DNA 1: CCCTGCAGGTCGACTGACTCTTATACACAAGTTGAGTGAGTGAGCATGCA
DNA 2: ACATGCATGCTCACTCACTCAACTTGTGTATAAGAGTCAGTCGACCTGCAGGG
binding result (H-NS): no binding
